# B1: CF-301: bacteriophage lysin polypeptide derived from a Streptococcus suis prophage, amino acid sequence of FIG. 1 / SEQ ID NO: 1; 26 kDa bacteriolytic enzyme (protein, listed as Streptococcus suis)
# chain: MTTVNEALNNVRAQVGSGVSVGNGECYALASWYERMISPDATVGLGAGVGWVSGAIGDTISAKNIGSSYNWQANGWTVSTSGPFKAGQIVTLGATPGNPYGHVVIVEAVDGDRLTILEQNYGGKRYPVRNYYSAASYRQQVVHYITPPGTVAQSAPNLAGSRSYRETGTMTVTVDALNVRRAPNTSGEIVAVYKRGESFDYDTVIIDVNGYVWVSYIGGSGKRNYVATGATKDGKRFGNAWGTFK
# What was measured:
# Charge (pI) = type: physicochemical
# S. aureus ATCC 700699 = assay: BMD MIC assay of a single strain in CA-MHB, human blood matrices and supplemented broth
# [1] = clinical grade, recombinantly produced in E. coli; cited from earlier work
# [2] = MIC assays under different conditions (FIG. 7)
# MRSA strain ATCC 29213 = assay: MIC assays under different conditions (FIG. 7); conditions: MHBII alone
# 30 S. aureus strains = assay: Broth microdilution (BMD) MIC, identification of new testing conditions, panel of 30 strains
# [3] = tested on: 223 contemporary clinical MSSA and MRSA strains; assay: First modified (stopgap) BMD method: polypropylene plates, MHBII with 1 mM DTT; type: cell-based, Staphylococcus aureus; conditions: MHBII supplemented with 1 mM DTT
# Experimental: Two modified BMD methods were initially developed to test PlySs2/CF-301. In the first method, the major modifications were that polypropylene plates were used and MHBII was supplemented with 1 mM DTT. DTT (DL-Dithiothreitol) is a common molecular biology reagent used to keep enzymes in a reduced state. […] This procedure was a stop gap because of the use of polypropylene, a remaining disconnect from human blood MIC values, and problems with frozen panels.
# 25 S. aureus strains = assay: BMD MIC, validation of the horse serum/DTT method with varied sources, conditions and storage
# [4] = oxidation and inactivation of active-site cysteine thiol in MHB
# [5] = 100% Human Serum, Fresh dilutions
# [6] = CAMHB, 0.5 mM DTT, Fresh dilutions
# [7] = CAMHB, 25% horse serum, 0.5 mM DTT, Fresh dilutions
# [8] = CAMHB, 25% horse serum, 0.5 mM DTT, Thawed
# [9] = CAMHB, 25% horse serum, Fresh dilutions
# [10] = Bacterial inoculum 5 × 10^4 CFU/ml
# [11] = Bacterial inoculum 5 × 10^5 CFU/ml (first line, r9)
# [12] = Bacterial inoculum 5 × 10^5 CFU/ml (second line, r10)
# [13] = Bacterial inoculum 5 × 10^6 CFU/ml
# [14] = CAMHB source BBL BD (Powder), Freeze/Thaw no
# [15] = CAMHB source BBL BD (Powder), Freeze/Thaw yes
# [16] = CAMHB source BD (Liquid), Freeze/Thaw no
# [17] = CAMHB source BD (Liquid), Freeze/Thaw yes
# [18] = CAMHB source Sigma-Aldrich (Powder), Freeze/Thaw no
# [19] = CAMHB source Sigma-Aldrich (Powder), Freeze/Thaw yes
# [20] = CAMHB source Teknova (Liquid), Freeze/Thaw no
# [21] = CAMHB source Teknova (Liquid), Freeze/Thaw yes
# [22] = DTT source G-Biosciences (powder), Freeze/Thaw no
# [23] = DTT source G-Biosciences (powder), Freeze/Thaw yes
# [24] = DTT source Sigma (liquid), Freeze/Thaw no
# [25] = DTT source Sigma (liquid), Freeze/Thaw yes
# [26] = DTT source Sigma (powder), Freeze/Thaw no
# [27] = DTT source Sigma (powder), Freeze/Thaw yes
# [28] = Incubation condition: 5% CO^2 (37° C.)
# [29] = Incubation condition: Ambient air (30° C.)
# [30] = Incubation condition: Ambient air (37° C.)
# [31] = horse serum/DTT method, reference value for the modifications tested
# [32] = panels stored at −80° C. for 1 day
# [33] = panels stored at −80° C. for 3 days
# [34] = panels stored at −80° C. for 7 days
# [35] = panels stored at −80° C. for 14 days
# [36] = panels stored at −80° C. for 60 days
# [37] = panels stored at −80° C. for 90 days
# [38] = panels stored at −80° C. for 120 days
# [39] = panels stored at −80° C. for 180 days
# [40] = panels stored at −80° C. for 365 days
molecule,measurement,setting,value
B1,pI,Charge (pI),9.2
same,MIC,S. aureus ATCC 700699; human blood,1 µg/mL
same,MIC,"S. aureus ATCC 700699; standard conditions, CA-MHB / MHBII",64 µg/mL
same,pH range of activity,[1],6-9.7 pH
same,temperature range of activity,[1],16-55 °C
same,MIC,[2]; 100% human serum,1 µg/mL
same,MIC,[2]; MHBII alone,16 µg/mL
same,trailing effect,MRSA strain ATCC 29213,slight trailing effect
same,Range,30 S. aureus strains; [5],0.125-2
same,Trailing,30 S. aureus strains; [5],none
same,MIC50,30 S. aureus strains; [6],128
same,MIC90,30 S. aureus strains; [6],128
same,Range,30 S. aureus strains; [6],8-256
same,Trailing,30 S. aureus strains; [6],strong
same,MIC50,"30 S. aureus strains; CAMHB, 0.5 mM DTT, Thawed",128
same,MIC90,"30 S. aureus strains; CAMHB, 0.5 mM DTT, Thawed",256
same,Trailing,"30 S. aureus strains; CAMHB, 0.5 mM DTT, Thawed",strong
same,MIC50,30 S. aureus strains; [7],0.5
same,MIC90,30 S. aureus strains; [7],1
same,Range,30 S. aureus strains; [7],0.25-2
same,Trailing,30 S. aureus strains; [7],none
same,MIC50,30 S. aureus strains; [8],0.5
same,MIC90,30 S. aureus strains; [8],1
same,Range,30 S. aureus strains; [8],0.25-2
same,Trailing,30 S. aureus strains; [8],none
same,Range,30 S. aureus strains; [9],0.5-4
same,Trailing,30 S. aureus strains; [9],none
same,Range,"30 S. aureus strains; CAMHB, 25% horse serum, Thawed",0.5-8
same,Trailing,"30 S. aureus strains; CAMHB, 25% horse serum, Thawed",none
same,Range,"30 S. aureus strains; CAMHB, Fresh dilutions",2-128
same,Trailing,"30 S. aureus strains; CAMHB, Fresh dilutions",strong
same,Trailing,"30 S. aureus strains; CAMHB, Thawed (frozen-thawed dilution panels)",strong
same,MIC90,[3],8 µg/mL
same,MIC range,[3],1 to 16 µg/mL
same,MIC50,25 S. aureus strains; [10],0.5 µg/mL
same,MIC90,25 S. aureus strains; [10],1 µg/mL
same,Range,25 S. aureus strains; [10],0.25 to 1 µg/mL
same,MIC50,25 S. aureus strains; [11],0.5 µg/mL
same,MIC90,25 S. aureus strains; [11],1 µg/mL
same,Range,25 S. aureus strains; [11],0.25 to 2 µg/mL
same,MIC50,25 S. aureus strains; [12],0.5 µg/mL
same,MIC90,25 S. aureus strains; [12],1 µg/mL
same,Range,25 S. aureus strains; [12],0.25 to 2 µg/mL
same,MIC50,25 S. aureus strains; [13],0.5 µg/mL
same,MIC90,25 S. aureus strains; [13],1 µg/mL
same,Range,25 S. aureus strains; [13],0.25 to 1 µg/mL
same,MIC50,25 S. aureus strains; [14],0.5 µg/mL
same,MIC90,25 S. aureus strains; [14],1 µg/mL
same,Range,25 S. aureus strains; [14],0.25 to 2 µg/mL
same,MIC50,25 S. aureus strains; [15],0.5 µg/mL
same,MIC90,25 S. aureus strains; [15],1 µg/mL
same,Range,25 S. aureus strains; [15],0.25 to 2 µg/mL
same,MIC50,25 S. aureus strains; [16],0.5 µg/mL
same,MIC90,25 S. aureus strains; [16],1 µg/mL
same,Range,25 S. aureus strains; [16],0.25 to 1 µg/mL
same,MIC50,25 S. aureus strains; [17],0.5 µg/mL
same,MIC90,25 S. aureus strains; [17],1 µg/mL
same,Range,25 S. aureus strains; [17],0.25 to 1 µg/mL
same,MIC50,25 S. aureus strains; [18],1 µg/mL
same,MIC90,25 S. aureus strains; [18],2 µg/mL
same,Range,25 S. aureus strains; [18],0.5 to 2 µg/mL
same,MIC50,25 S. aureus strains; [19],1 µg/mL
same,MIC90,25 S. aureus strains; [19],2 µg/mL
same,Range,25 S. aureus strains; [19],0.5 to 2 µg/mL
same,MIC50,25 S. aureus strains; [20],0.5 µg/mL
same,MIC90,25 S. aureus strains; [20],1 µg/mL
same,Range,25 S. aureus strains; [20],0.25 to 1 µg/mL
same,MIC50,25 S. aureus strains; [21],0.5 µg/mL
same,MIC90,25 S. aureus strains; [21],1 µg/mL
same,Range,25 S. aureus strains; [21],0.25 to 1 µg/mL
same,MIC,25 S. aureus strains; [22],1 µg/mL
same,MIC50,25 S. aureus strains; [22],0.5 µg/mL
same,Range,25 S. aureus strains; [22],0.25 to 2 µg/mL
same,MIC,25 S. aureus strains; [23],1 µg/mL
same,MIC50,25 S. aureus strains; [23],0.5 µg/mL
same,Range,25 S. aureus strains; [23],0.25 to 2 µg/mL
same,MIC,25 S. aureus strains; [24],1 µg/mL
same,MIC50,25 S. aureus strains; [24],0.5 µg/mL
same,Range,25 S. aureus strains; [24],0.25 to 2 µg/mL
same,MIC,25 S. aureus strains; [25],1 µg/mL
same,MIC50,25 S. aureus strains; [25],0.5 µg/mL
same,Range,25 S. aureus strains; [25],0.25 to 2 µg/mL
same,MIC,25 S. aureus strains; [26],1 µg/mL
same,MIC50,25 S. aureus strains; [26],0.5 µg/mL
same,Range,25 S. aureus strains; [26],0.25 to 2 µg/mL
same,MIC,25 S. aureus strains; [27],1 µg/mL
same,MIC50,25 S. aureus strains; [27],0.5 µg/mL
same,Range,25 S. aureus strains; [27],0.25 to 2 µg/mL
same,MIC50,25 S. aureus strains; Final pH: Adjusted to pH 7.0,0.5 µg/mL
same,MIC90,25 S. aureus strains; Final pH: Adjusted to pH 7.0,1 µg/mL
same,Range,25 S. aureus strains; Final pH: Adjusted to pH 7.0,0.25 to 2 µg/mL
same,MIC50,25 S. aureus strains; Final pH: Adjusted to pH 8.0,1 µg/mL
same,MIC90,25 S. aureus strains; Final pH: Adjusted to pH 8.0,1 µg/mL
same,Range,25 S. aureus strains; Final pH: Adjusted to pH 8.0,0.25 to 2 µg/mL
same,MIC50,25 S. aureus strains; Final pH: Unadjusted (pH 7.4),0.5 µg/mL
same,MIC90,25 S. aureus strains; Final pH: Unadjusted (pH 7.4),1 µg/mL
same,Range,25 S. aureus strains; Final pH: Unadjusted (pH 7.4),0.25 to 2 µg/mL
same,MIC50,25 S. aureus strains; [28],0.5 µg/mL
same,MIC90,25 S. aureus strains; [28],1 µg/mL
same,Range,25 S. aureus strains; [28],0.25 to 2 µg/mL
same,MIC50,25 S. aureus strains; [29],0.5 µg/mL
same,MIC90,25 S. aureus strains; [29],1 µg/mL
same,Range,25 S. aureus strains; [29],0.25 to 1 µg/mL
same,MIC50,25 S. aureus strains; [30],0.5 µg/mL
same,MIC90,25 S. aureus strains; [30],1 µg/mL
same,Range,25 S. aureus strains; [30],0.25 to 2 µg/mL
same,effect of prolonged incubation of panels at −80° C. on MIC,25 S. aureus strains; assayed up to 365 days,no significant effect
same,MIC50,25 S. aureus strains; [31],0.5 µg/mL
same,MIC90,25 S. aureus strains; [31],1 µg/mL
same,MIC range,25 S. aureus strains; [31],0.25 to 2 µg/mL
same,MIC^50,25 S. aureus strains; [32],0.5
same,MIC^90,25 S. aureus strains; [32],0.5
same,Range,25 S. aureus strains; [32],0.25-1
same,MIC^50,25 S. aureus strains; [33],0.5
same,MIC^90,25 S. aureus strains; [33],1
same,Range,25 S. aureus strains; [33],0.25-2
same,MIC^50,25 S. aureus strains; [34],0.5
same,MIC^90,25 S. aureus strains; [34],0.5
same,Range,25 S. aureus strains; [34],0.25-1
same,MIC^50,25 S. aureus strains; [35],0.5
same,MIC^90,25 S. aureus strains; [35],1
same,Range,25 S. aureus strains; [35],0.25-2
same,MIC^50,25 S. aureus strains; [36],0.5
same,MIC^90,25 S. aureus strains; [36],0.5
same,Range,25 S. aureus strains; [36],0.25-2
same,MIC^50,25 S. aureus strains; [37],0.5
same,MIC^90,25 S. aureus strains; [37],1
same,Range,25 S. aureus strains; [37],0.25-2
same,MIC^50,25 S. aureus strains; [38],0.5
same,MIC^90,25 S. aureus strains; [38],1
same,Range,25 S. aureus strains; [38],0.25-2
same,MIC^50,25 S. aureus strains; [39],0.5
same,MIC^90,25 S. aureus strains; [39],0.5
same,Range,25 S. aureus strains; [39],0.25-1
same,MIC^50,25 S. aureus strains; [40],0.5
same,MIC^90,25 S. aureus strains; [40],0.5
same,Range,25 S. aureus strains; [40],0.25-2
same,half-life in MHB,[4],~5 h

# — US10851401B2, “Broth microdilution method for evaluating and determining minimal inhibitory concentration of antibacterial polypeptides” (priority 2016, dated 2020)
